From article PMC7113243

Target: GST-tagged ID5 (human) (UniProt Q92793)
Test: BLI; GST-tagged ID5 immobilised on the biosensors; IQGAP1-F 0.1 to 19 uM, twelve concentrations; association and dissociation 60 s each; RT; double referenced against buffer and GST; steady state fitted 1:1

IQGAP1-F, His-tagged IQGAP1 construct (residues 286-592 of IQGAP1) (from UniProt P46940 286-592) (domain or fragment)
Kd: 400 nM
